Test results published in the supplement of paper PMC9170038.

Test system: MS2 coat protein
Assay: apparent KD of MS2 coat protein; designed switch direction (-1 OFF switch, 1 ON switch): 1; higher = weaker reporter binding
Outline: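 Designed RNA switches sharing common flanks were transcribed on Illumina chips by stalled E. coli RNA polymerase. They were titrated with SNAP-549-labelled MS2 coat protein, from 0.7 or 1.5 nM doubling to 3 µM, in Tris-HCl pH 7.5 buffer with KCl, MgCl2, BSA, DTT, tRNA and Tween-20. Titrations ran without input, with 200 uM small-molecule ligand, or with an oligonucleotide input. The apparent KD of each design is the median over its clusters, after curve-fitting of normalised cluster fluorescence.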

[1] = Eterna round: R95, input ligand: microRNA oligo, concentration not stated
[2] = Eterna round: R95, input ligand: FMN 200 uM
[3] = Eterna round: R95, input ligand: none
[4] = input ligand: microRNA oligo, concentration not stated

| Sequence | apparent KD of MS2 coat protein [1] [nM] | apparent KD of MS2 coat protein [2] [nM] | apparent KD of MS2 coat protein [3] [nM] | apparent KD of MS2 coat protein (input ligand: FMN 200 uM) [nM] | apparent KD of MS2 coat protein [4] [nM] | apparent KD of MS2 coat protein (input ligand: none) [nM] |
| --- | --- | --- | --- | --- | --- | --- |
| CAGCGCUGUUGAGAGGAUAUGCGGUGAUGGACAUGAGGAUCACCCAUGUUAGCGACAGCAUUACGGCAGAAGGCUUCACAGCUGC [Soteed Omei mod 17] (puzzle: Same State 2) | 39.3 |  |  |  |  |  |
| GAGUGACAUGAGGAUCACCCAUGUAGAAUAGAACAAGGAUAUGUGGAAGGCGGAGGAGAGACAGAAGGUGUUGGAG [JR_SS1_Sub056] (puzzle: Same State 1) | 51.2 | 47.9 | 88 |  |  |  |
| GUGGAGGGUUGAGGAUAUUGAAUACAUAUGUUUAACAUGAGGAUCACCCAUGUGGGUUGCGGUUUCGAGAAGGUAGGUUGCUGG [salish99_SSNG2_r04_040] (Eterna round: R96, puzzle: Same State NG 2) |  |  |  | 103 | 72 | 111 |
| UACAAUCUAUCUGAGGAUAUCAUGCAUUACACAUGAGGAUCACCCAUGUGCAGGAAAACUGCAUAUGAGAAGGCAGAUAGAUUGU [salish99_ss2_r3_066] (Eterna round: R96, puzzle: Same State 2) |  |  |  | 15.5 | 328 | 411 |
| GUAGCAUACCGAGGAUAUUCAUAUACAUGAGGAUCACCCAUGUUGGCCAGCAUUAGCUGGCCUUGGGAGAAGGCGGAAUGCUAC [Xeonanis - 20 Mod50] (Eterna round: R96, puzzle: Same State NG 2) |  |  |  | 18.9 | 79.4 | 141 |
| AUCAUAGUAGCGCAGGAUAUCCAGGUCGAGACAUGAGGAUCACCCAUGUCAGCAGGAGGACCAGAGGAGAAGGGUGAGAAAAUAA [Bimaan] (puzzle: Same State 2) | 14.2 | 12.5 | 16.7 |  |  |  |
| AAUAUAUUAAGUGAGGAUAUCAUAGAAAAAACAUGAGGAUCACCCAUGUGGGAAACCUGGUCGGGUGAGAAGGCACUUAAUAUAU [Samwise Clockwise 29 - Jieux - Same State 2] (Eterna round: R96, puzzle: Same State 2) |  |  |  | 85.2 | 823 | 1280 |
| AAACGGGCUACAGGAUAUGCUCGAUAAACUUCAGUAGAAGGGUGGCCUUAUCAACGAACAUGAGGAUCACCCAUGUUCUACAAC [Dianrisole] (Eterna round: R96, puzzle: Same State NG 1) |  |  |  | 77.2 | 28.3 | 136 |
| UUUAGUUGCGCGCAGGAUAUGUAUUAAUAUACAUGAGGAUCACCCAUGUGAGACCAAAUAGGUCUACAGAAGGGCGAAUCGCGAC [Laonerce - 29] (Eterna round: R96, puzzle: Same State 2) |  |  |  | 42.6 | 182 | 354 |
| AAAUAAAACACAGGAUAUGCAACCAAAACGGCGGCAGAAGGGUGAGACAUGAGGAUCACCCAUGUACACGUCCCACGGACGUGC [Arorraed] (Eterna round: R96, puzzle: Same State NG 1) |  |  |  | 392 | 9.43 | 88.4 |
| AUAUGAGGAGCAGGAUAUGCGGAGAAGAAAGAAGCAGAAGGGCUCAUGGGACAACAUGAGGAUCACCCAUGUUCUCCGCGAUGA [AK SSNG1-V2-3.2] (Eterna round: R96, puzzle: Same State NG 1) |  |  |  | 80.2 | 298 | 523 |
| CGUUCUUACUCAGGACGGAGAGUAGAGGAACAUGAGGAUCACCCAUGUAUGAGCUUUUUGCUCGUGAUUAACAGUAG [JR_SHM208a_Sub013] (puzzle: Sensor for hsa-mir-208a) | 95.4 | 62.7 | 122 |  |  |  |
| GGUCCAGCCUGAGCUGGACAAAAGCAUGUACAUGAGGAUCACCCAUGUUCAUGUACAAGCUUUUUGCUCGUCUUACA [salish99_208a_r3_084] (puzzle: Sensor for hsa-mir-208a) | 14.8 | 485 | 443 |  |  |  |
| ACAUGAGACUUAGGAUAUGUUGUACCUACAUGUGACAUGAGGAUCACCCAUGUGGUAAGUAUGAUACAGAAGGAAGAGAUAUGU [Equivalance 66 - Jieux - Same State NG 2] (Eterna round: R96, puzzle: Same State NG 2) |  |  |  | 17.2 | 27.5 | 42.9 |
| GAUAGACAUGAGGAUCACCCAUGUGACAAAACCACAGGAUAUCACACAGGAGUAACUGCGUGAGAAGGGUGAGACU [Edatinti] (puzzle: Same State 1) | 13.4 | 109 | 32.4 |  |  |  |
| AAACACAUGAGGAUCACCCAUGUAGCGCCAUUGAGGCGCACAUAGGAUAUCCGGUCCAAAAGACCGGAGAAGGGUGAAAGAAAA [Soesen] (Eterna round: R96, puzzle: Same State NG 3) |  |  |  | 125 | 166 | 146 |
| UUGAGAAAUUAAGGAUAUUGAGUACAUAUGUUUAACAUGAGGAUCACCCAUGUGGGUUGCGGUAUCGAGAAGGUAAAUUACUAG [Mat - same State NG 2 - JL mod - D72] (Eterna round: R96, puzzle: Same State NG 2) |  |  |  | 138 | 64.7 | 112 |
| AUUAUACAUGAGGAUCACCCAUGUAAUUAAUUAAUUAAGAUCAAGGAUAUCAGCUCGUUUAGAGCUGAGAAGGUGAUCACAUGU [SSNG3/20-B3] (Eterna round: R96, puzzle: Same State NG 3) |  |  |  |  | 147 |  |
| GUAGCAUACCGAGGAUAUUCAUAUUAUAACAUGAGGAUCACCCAUGUUGGCCGAUUACGGCCUUGGGAGAAGGCGGAAUGCUAC [Xeonanis - 20 Mod18] (Eterna round: R96, puzzle: Same State NG 2) |  |  |  | 15.8 | 74.1 | 84.3 |
| GUUACAUGAGGAUCACCCAUGUAUGUGUGGGAGUAAGUGUCUUAGGAUAUCUAUGAUUGAAUUUAAGAGAAGGAAGAUUGUUGU [JMF's solution 77] (Eterna round: R96, puzzle: Same State NG 3) |  |  |  | 103 | 83.8 | 90.6 |
| UAAAUAAUGAUAGGAUAUACAUGAGGAAUUCUCGUAGAAGGAUCAUGACAUGAGGAUCACCCAUGUAACGCUCGAAAGAGCGUA [Mat - Same State NG 1 - JL mod - D40] (Eterna round: R96, puzzle: Same State NG 1) |  |  |  | 556 | 205 | 585 |
| AGUCCAGCCUGAGCUGGACAAAAGCAUGUACAUGAGGAUCACCCAUGUUCAUGUACAAGCUUUUUGCUCGUCUAAAA [Mat - hsa-mir-208a - Mod of JL - 50] (puzzle: Sensor for hsa-mir-208a) | 16.2 | 414 | 540 |  |  |  |
| GUGUGUUGCGGGCAGGAUAUGUACUUGAGUACAUGAGGAUCACCCAUGUGCGCCUGUUUCAGGCGACAGAAGGGCCUAUCGCGAC [JL-ss2-3.26 ViennaUCT mod] (puzzle: Same State 2) | 318 | 121 | 1340 |  |  |  |
